Tested on: Escherichia coli TOP10
Test: shrunken log2 fold change of peptide-encoding DNA abundance (4.5 h post-induction vs induction); higher = less antimicrobial activity (less host growth inhibition)
Details: time post-induction: 4.5 h; library: site-saturation at positions 5, 18, 19, 20
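Note: peptides expressed intracellularly from a pBAD plasmid library in pooled LB shake-flask culture, induced with 0.3% L-arabinose, DNA abundance read by NGS, three biological replicates, DESeq2 with apeglm shrinkage.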

Sequence | shrunken log2 fold change
RRIRRRPPRLPRPRPRPDEQPRP | 0.237
RRIRFRPPRLPRPRPRPDYCPRP | -0.127
RRIRIRPPRLPRPRPRPLACPRP | -0.398
RRIRVRPPRLPRPRPRPECNPRP | -0.195
RRIRGRPPRLPRPRPRPVPQPRP | 0.618
RRIRARPPRLPRPRPRPDKGPRP | 0.168
RRIRTRPPRLPRPRPRPGDRPRP | 0.0976
RRIRVRPPRLPRPRPRPQMLPRP | -0.158
RRIRIRPPRLPRPRPRPHIRPRP | -0.297
RRIRFRPPRLPRPRPRPNYLPRP | -0.381
RRIRARPPRLPRPRPRPTMIPRP | 0.00226
RRIRWRPPRLPRPRPRPPVIPRP | -0.189
RRIRPRPPRLPRPRPRPNFEPRP | 0.275
RRIRMRPPRLPRPRPRPKHGPRP | 0.742
RRIRPRPPRLPRPRPRPHIYPRP | -0.576
RRIRARPPRLPRPRPRPRFMPRP | 0.0944
RRIRGRPPRLPRPRPRPNCCPRP | 0.245
RRIRRRPPRLPRPRPRPNCYPRP | -0.0134
RRIRGRPPRLPRPRPRPMMRPRP | 1.01
RRIRCRPPRLPRPRPRPPCCPRP | 0.021
RRIRWRPPRLPRPRPRPGYGPRP | -0.0305
RRIRTRPPRLPRPRPRPCGFPRP | 0.268
RRIRQRPPRLPRPRPRPMRMPRP | 0.0593
RRIRIRPPRLPRPRPRPFAMPRP | -0.98
RRIRWRPPRLPRPRPRPEMSPRP | -0.0114

Sequence | shrunken log2 fold change
RRIRSRPPRLPRPRPRPTRRPRP | 0.109
RRIRWRPPRLPRPRPRPGAEPRP | 1.17
RRIRCRPPRLPRPRPRPRPFPRP | 0.176
RRIRKRPPRLPRPRPRPVYNPRP | -0.0144
RRIRWRPPRLPRPRPRPPLGPRP | 0.416
RRIRFRPPRLPRPRPRPSFGPRP | -0.112
RRIRIRPPRLPRPRPRPLKQPRP | 0.0465
RRIRLRPPRLPRPRPRPGIEPRP | -0.00975
RRIRYRPPRLPRPRPRPSERPRP | -0.417
RRIRARPPRLPRPRPRPYSCPRP | -0.43
RRIRFRPPRLPRPRPRPAQKPRP | 0.166
RRIRPRPPRLPRPRPRPCWWPRP | 0.742
RRIRLRPPRLPRPRPRPKILPRP | -0.143
RRIRERPPRLPRPRPRPAEQPRP | -0.163
RRIRLRPPRLPRPRPRPCIQPRP | -0.675
RRIRKRPPRLPRPRPRPHRFPRP | -0.0599
RRIRHRPPRLPRPRPRPTAEPRP | 0.056
RRIRFRPPRLPRPRPRPAHNPRP | -0.016
RRIRRRPPRLPRPRPRPLVCPRP | 0.177
RRIRRRPPRLPRPRPRPFQVPRP | -0.0462
RRIRKRPPRLPRPRPRPWGSPRP | -0.034
RRIRLRPPRLPRPRPRPYLLPRP | -0.248
RRIRNRPPRLPRPRPRPGWPPRP | 0.541
RRIRSRPPRLPRPRPRPYFDPRP | -0.597
RRIRYRPPRLPRPRPRPDVRPRP | -0.0526

Sequence | shrunken log2 fold change
RRIRTRPPRLPRPRPRPWKGPRP | 0.143
RRIRDRPPRLPRPRPRPHTSPRP | 0.0247
RRIRPRPPRLPRPRPRPVIGPRP | 0.0389
RRIRPRPPRLPRPRPRPKAHPRP | 0.0759
RRIRWRPPRLPRPRPRPEEGPRP | -0.00968
RRIRARPPRLPRPRPRPEGTPRP | 0.251
RRIRHRPPRLPRPRPRPYYHPRP | -0.339
RRIRPRPPRLPRPRPRPAAKPRP | 0.435
RRIRTRPPRLPRPRPRPARCPRP | 0.324
RRIRIRPPRLPRPRPRPSMVPRP | -0.654
RRIRTRPPRLPRPRPRPGPVPRP | 0.141
RRIRWRPPRLPRPRPRPIDKPRP | -0.105
RRIRPRPPRLPRPRPRPYKSPRP | -0.0798
RRIRMRPPRLPRPRPRPGMCPRP | 0.19
RRIRKRPPRLPRPRPRPMVLPRP | -0.191
RRIRKRPPRLPRPRPRPCVHPRP | -0.266
RRIRARPPRLPRPRPRPLCWPRP | 0.43
RRIRNRPPRLPRPRPRPVMTPRP | 0.0556
RRIRRRPPRLPRPRPRPMIVPRP | 0.00521
RRIRERPPRLPRPRPRPWRWPRP | 0.0174
RRIRRRPPRLPRPRPRPFGSPRP | -0.0013
RRIRYRPPRLPRPRPRPYNDPRP | -0.0979
RRIRERPPRLPRPRPRPGEGPRP | 0.028
RRIRDRPPRLPRPRPRPWWLPRP | 0.0758
RRIRQRPPRLPRPRPRPQHKPRP | -0.205

Sequence | shrunken log2 fold change
RRIRPRPPRLPRPRPRPCPAPRP | -0.0349
RRIRMRPPRLPRPRPRPNSPPRP | 0.147
RRIRPRPPRLPRPRPRPRVPPRP | 0.342
RRIRSRPPRLPRPRPRPQLSPRP | -0.106
RRIRNRPPRLPRPRPRPPPCPRP | 0.756
RRIRYRPPRLPRPRPRPVCDPRP | -0.623
RRIRKRPPRLPRPRPRPMYFPRP | -0.0354
RRIRYRPPRLPRPRPRPDLVPRP | -0.0421
RRIRGRPPRLPRPRPRPAHGPRP | 0.204
RRIRFRPPRLPRPRPRPYRKPRP | -0.186
RRIRRRPPRLPRPRPRPMRLPRP | 0.667
RRIRMRPPRLPRPRPRPLGEPRP | 0.317
RRIRHRPPRLPRPRPRPGPNPRP | 0.813
RRIRFRPPRLPRPRPRPIYPPRP | -0.574
RRIRNRPPRLPRPRPRPIKTPRP | -0.0156
RRIRNRPPRLPRPRPRPFWSPRP | -0.146
RRIRQRPPRLPRPRPRPMNVPRP | -0.0102
RRIRFRPPRLPRPRPRPIWMPRP | -0.226
RRIRPRPPRLPRPRPRPGHEPRP | -0.202
RRIRYRPPRLPRPRPRPEEIPRP | -0.00965
RRIRERPPRLPRPRPRPRIPPRP | -0.269
RRIRQRPPRLPRPRPRPDGEPRP | 0.117
RRIRPRPPRLPRPRPRPCLIPRP | -0.129
RRIRTRPPRLPRPRPRPRMLPRP | 0.292
RRIRDRPPRLPRPRPRPPCFPRP | 0.35

Sequence | shrunken log2 fold change
RRIRYRPPRLPRPRPRPASVPRP | -0.256
RRIRIRPPRLPRPRPRPHWNPRP | -0.758
RRIRERPPRLPRPRPRPDVWPRP | 0.0561
RRIRQRPPRLPRPRPRPRTSPRP | 0.131
RRIRTRPPRLPRPRPRPWCGPRP | -0.0198
RRIRVRPPRLPRPRPRPKCFPRP | -0.213
RRIRERPPRLPRPRPRPMYRPRP | -0.273
RRIRMRPPRLPRPRPRPITDPRP | -0.667
RRIRGRPPRLPRPRPRPNSRPRP | 0.107
RRIRIRPPRLPRPRPRPVPTPRP | 0.0576
RRIRRRPPRLPRPRPRPWDPPRP | -0.119
RRIRSRPPRLPRPRPRPPCYPRP | -0.145
RRIRKRPPRLPRPRPRPGKNPRP | -0.181
RRIRWRPPRLPRPRPRPLAGPRP | 0.493
RRIRRRPPRLPRPRPRPSLVPRP | 0.243
RRIRKRPPRLPRPRPRPNNTPRP | -0.243
RRIRIRPPRLPRPRPRPMIFPRP | -0.266
RRIRLRPPRLPRPRPRPVFSPRP | -0.112
RRIRRRPPRLPRPRPRPANHPRP | 0.097
RRIRHRPPRLPRPRPRPGCQPRP | 0.0291
RRIRIRPPRLPRPRPRPAVFPRP | 0.103
RRIRWRPPRLPRPRPRPVQIPRP | 0.278
RRIRCRPPRLPRPRPRPHQEPRP | -0.0176
RRIRPRPPRLPRPRPRPMAQPRP | 0.177
RRIRQRPPRLPRPRPRPQNKPRP | -0.22

From the supplement of paper PMC9112550, “Optimization of the antimicrobial peptide Bac7 by deep mutational scanning” (BMC Biology, 2022)
